According to article PMC8062630, “Structure and assembly of double-headed Sendai virus nucleocapsids” (Communications Biology, 2021):
Changes are numbered by the printed parent chain.

Legend:
[1] = biological target: the molecule itself; test: cryo-EM structure; helical reconstruction of the helical stems of double-headed nucleocapsids (RELION 3.1); protein with bound host RNA in 20 mM Tris-HCl pH 7.4, 150 mM NaCl
[2] = biological target: the molecule itself; test: electron microscopy of purified filaments; purified mutant nucleoproteins imaged by EM; whether negative stain or cryo-EM is not told in the text shown
[3] = biological target: the molecule itself; test: cryo-EM imaging of filaments; nucleoprotein fractions from HEK293F lysate after two-step sucrose ultracentrifugation, put directly on cryo-EM grids

B1: Sendai virus nucleoprotein, wild type, uncleaved (NWT), assembled as nucleocapsid NCWT (natural protein)
chain: MAGLLSTFDTFSSRRSESINKSGGGAVIPGQRSTVSVFVLGPSVTDDADKLSIATTFLAHSLDTDKQHSQRGGFLVSLLAMAYSSPELYLTTNGVNADVKYVIYNIEKDPKRTKTDGFIVKTRDMEYERTTEWLFGPMVNKSPLFQGQRDAADPDTLLQIYGYPACLGAIIVQVWIVLVKAITSSAGLRKGFFNRLEAFRQDGTVKGALVFTGETVEGIGSVMRSQQSLVSLMVETLVTMNTARSDLTTLEKNIQIVGNYIRDAGLASFMNTIKYGVETKMAALTLSNLRPDINKLRSLIDTYLSKGPRAPFICILKDPVHGEFAPGNYPALWSYAMGVAVVQNKAMQQYVTGRTYLDMEMFLLGQAVAKDAESKISSALEDELGVTDTAKERLRHHLANLSGGDGAYHKPTGGGAIEVALDNADIDLEPEAHTDQDARGWGGDSGDRWARSMGSGHFITLHGAERLEEETNDEDVSDIERRIARRLAERRQEDATTHEDEGRNNGVDHDEEDDAAAAAGMGGI
notes: Sendai virus nucleoprotein (N), wild type, uncleaved; the N-tail is printed as 404-524; helical polymer, number of protomers not fixed; also called SeV nucleoprotein; SeV nucleocapsid; source: E. coli BL21 (DE3), purified (HisTrap HP, Superose 6 increase)
[1]
  binding result: binds

B2: Sendai virus nucleoprotein loop mutant (residues 118 to 127 replaced with all alanine) (natural protein)
chain: B1 chain with F118A, I119A, V120A, K121A, T122A, R123A, D124A, M125A, E126A, Y127A
notes: Sendai virus nucleoprotein (N), derivative of NWT; also called Loop118–127 mutant; source: E. coli BL21 (DE3), purified (HisTrap HP, Superose 6 increase)
[2]
  binding result: binds

B3: Sendai virus nucleoprotein NWT over-expressed in HEK293F cells (natural protein)
chain: B1 chain
notes: Sendai virus nucleoprotein (N), wild type; Fractions were chosen by western blot against the 6xHis tag; also called NWT in pCAGGS; nucleoproteins isolated from HEK293F cells; source: HEK293F, transfected, isolated from lysate by two-step sucrose ultracentrifugation; not shown: His6, C-terminal, kept
[3]
  binding result: binds
